doi:10.1101/2024.10.06.616194

catalytic (cyclization) activity of the GpeC mutant relative to the wild type (GpeC R160A): > 50%
catalytic (cyclization) activity of the GpeC mutant relative to the wild type (GpeC Y163A): > 50%
catalytic (cyclization) activity of the GpeC mutant relative to the wild type (GpeC F214A): > 50%
catalytic (cyclization) activity of the GpeC mutant relative to the wild type (GpeC R152A): > 50%
Binder: WFWMLYHHM [SGpeA2 (minimal 9-mer substrate)]
